# Laboratory results: IntAct's records for PubMed 18001824
# B1: E3 ubiquitin-protein ligase RNF8 (Homo sapiens), O76064 (parent)
# chain: MGEPGFFVTGDRAGGRSWCLRRVGMSAGWLLLEDGCEVTVGRGFGVTYQLVSKICPLMISRNHCVLKQNPEGQWTIMDNKSLNGVWLNRARLEPLRVYSIHQGDYIQLGVPLENKENAEYEYEVTEEDWETIYPCLSPKNDQMIEKNKELRTKRKFSLDELAGPGAEGPSNLKSKINKVSCESGQPVKSQGKGEVASTPSDNLDPKLTALEPSKTTGAPIYPGFPKVTEVHHEQKASNSSASQRSLQMFKVTMSRILRLKIQMQEKHEAVMNVKKQTQKGNSKKVVQMEQELQDLQSQLCAEQAQQQARVEQLEKTFQEEEQHLQGLEIAQGEKDLKQQLAQALQEHWALMEELNRSKKDFEAIIQAKNKELEQTKEEKEKMQAQKEEVLSHMNDVLENELQCIICSEYFIEAVTLNCAHSFCSYCINEWMKRKIECPICRKDIKSKTYSLVLDNCINKMVNNLSSEVKERRIVLIRERKAKRLF
# Variants of: B1
# Conditions: with mdc1_human MDC1, Q14676
# Sequence of mdc1_human MDC1, Q14676 (Q14676 whole entry): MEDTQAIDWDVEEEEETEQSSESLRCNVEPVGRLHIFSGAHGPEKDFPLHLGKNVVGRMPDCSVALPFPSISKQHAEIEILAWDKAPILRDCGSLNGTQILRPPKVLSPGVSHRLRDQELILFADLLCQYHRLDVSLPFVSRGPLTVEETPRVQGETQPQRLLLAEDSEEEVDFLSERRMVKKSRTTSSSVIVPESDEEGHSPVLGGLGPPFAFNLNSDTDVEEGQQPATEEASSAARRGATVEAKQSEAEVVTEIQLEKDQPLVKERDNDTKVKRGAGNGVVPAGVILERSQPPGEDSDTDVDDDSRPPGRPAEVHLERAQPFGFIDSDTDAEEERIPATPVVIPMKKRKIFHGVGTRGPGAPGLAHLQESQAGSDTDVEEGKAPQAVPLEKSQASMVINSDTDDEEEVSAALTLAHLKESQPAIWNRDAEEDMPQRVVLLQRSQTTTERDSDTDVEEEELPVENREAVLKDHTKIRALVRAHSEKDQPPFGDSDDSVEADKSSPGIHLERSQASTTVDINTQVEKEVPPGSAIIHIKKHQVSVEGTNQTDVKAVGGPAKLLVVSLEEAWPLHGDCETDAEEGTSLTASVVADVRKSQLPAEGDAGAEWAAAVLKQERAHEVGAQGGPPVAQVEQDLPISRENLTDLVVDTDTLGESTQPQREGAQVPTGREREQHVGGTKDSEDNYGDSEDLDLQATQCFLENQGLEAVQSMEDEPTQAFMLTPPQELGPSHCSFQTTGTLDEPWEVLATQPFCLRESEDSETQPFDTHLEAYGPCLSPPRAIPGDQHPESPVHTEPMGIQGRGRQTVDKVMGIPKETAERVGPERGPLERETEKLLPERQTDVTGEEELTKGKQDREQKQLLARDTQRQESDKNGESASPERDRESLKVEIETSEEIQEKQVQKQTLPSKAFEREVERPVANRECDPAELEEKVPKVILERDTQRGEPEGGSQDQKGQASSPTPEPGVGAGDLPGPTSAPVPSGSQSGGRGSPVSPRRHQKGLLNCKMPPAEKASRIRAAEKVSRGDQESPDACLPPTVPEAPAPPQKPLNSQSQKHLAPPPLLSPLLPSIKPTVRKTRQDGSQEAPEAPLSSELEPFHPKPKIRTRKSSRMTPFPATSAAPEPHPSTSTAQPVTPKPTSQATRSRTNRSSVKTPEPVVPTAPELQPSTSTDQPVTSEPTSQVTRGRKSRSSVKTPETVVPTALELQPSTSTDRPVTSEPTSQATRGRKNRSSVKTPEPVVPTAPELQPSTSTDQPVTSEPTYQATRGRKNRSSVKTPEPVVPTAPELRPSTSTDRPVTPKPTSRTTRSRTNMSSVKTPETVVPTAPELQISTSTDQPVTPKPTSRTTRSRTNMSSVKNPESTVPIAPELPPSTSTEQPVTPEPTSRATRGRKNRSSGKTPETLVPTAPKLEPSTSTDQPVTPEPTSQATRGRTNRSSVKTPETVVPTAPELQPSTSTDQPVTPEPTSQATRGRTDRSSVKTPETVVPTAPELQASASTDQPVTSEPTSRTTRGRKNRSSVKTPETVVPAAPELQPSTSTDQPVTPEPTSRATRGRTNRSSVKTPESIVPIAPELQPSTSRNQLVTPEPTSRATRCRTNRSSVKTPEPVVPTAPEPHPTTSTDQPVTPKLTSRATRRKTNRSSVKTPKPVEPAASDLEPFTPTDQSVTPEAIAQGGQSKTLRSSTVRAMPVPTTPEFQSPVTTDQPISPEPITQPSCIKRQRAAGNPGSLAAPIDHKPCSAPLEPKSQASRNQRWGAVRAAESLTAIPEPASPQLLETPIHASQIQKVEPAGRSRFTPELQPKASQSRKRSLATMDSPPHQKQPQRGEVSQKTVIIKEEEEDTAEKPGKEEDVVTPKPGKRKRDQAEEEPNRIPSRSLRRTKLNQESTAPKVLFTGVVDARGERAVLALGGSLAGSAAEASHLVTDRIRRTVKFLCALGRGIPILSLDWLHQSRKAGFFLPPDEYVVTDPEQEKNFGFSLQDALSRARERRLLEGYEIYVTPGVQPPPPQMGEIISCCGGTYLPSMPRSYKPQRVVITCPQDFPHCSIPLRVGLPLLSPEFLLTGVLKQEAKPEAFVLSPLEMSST
row,effect of a mutation on the interaction,Variant
1,disrupting interaction,MGEPGFFVTGDRAGGRSWCLRRVGMSAGWLLLEDGCEVTVGAGFGVTYQLVSKICPLMISRNHCVLKQNPEGQWTIMDNKSLNGVWLNRARLEPLRVYSIHQGDYIQLGVPLENKENAEYEYEVTEEDWETIYPCLSPKNDQMIEKNKELRTKRKFSLDELAGPGAEGPSNLKSKINKVSCESGQPVKSQGKGEVASTPSDNLDPKLTALEPSKTTGAPIYPGFPKVTEVHHEQKASNSSASQRSLQMFKVTMSRILRLKIQMQEKHEAVMNVKKQTQKGNSKKVVQMEQELQDLQSQLCAEQAQQQARVEQLEKTFQEEEQHLQGLEIAQGEKDLKQQLAQALQEHWALMEELNRSKKDFEAIIQAKNKELEQTKEEKEKMQAQKEEVLSHMNDVLENELQCIICSEYFIEAVTLNCAHSFCSYCINEWMKRKIECPICRKDIKSKTYSLVLDNCINKMVNNLSSEVKERRIVLIRERKAKRLF [R42A]
